2 substances from PMC7508878 can be followed below.

Test [1] addresses Tri1 protein of the varicella-zoster virus heterotriplex (varicella-zoster virus (strain vOka)). Kind of test: cryo-EM structure; VZV A-capsids purified from infected MRC-5 cells, in 1x PBS; single-particle reconstruction with block-based (localized) reconstruction of an asymmetric unit, 3.7 Å.
The target of test [2] is major capsid protein (MCP) of varicella-zoster virus (varicella-zoster virus (strain vOka)) (UniProt P09245). Described as above.

In general, stoichiometry N refers to the number of molecules, sites or subunits per partner or assembly.

Several values for one entry are separate records, joined by “and”; a condition that tells them apart may be missing. Identical values can stand only once.

“Tri2 protein of the varicella-zoster virus heterotriplex (natural protein)” registered a stoichiometry N (Tri2 per Tri1) in test [1] of 2.
With “major capsid protein (MCP) of varicella-zoster virus (from UniProt P09245 1-1396) (natural protein)”, in test [2], the stoichiometry N is 5 and 6.
